According to article PMC12203938:
Values joined by “and” are separate entries in the source; they are usually repeats but may differ in a detail not shown here. Equal entries are not always repeated. Values belong to the substance of their own block, whether it stands above or below them.

Experiments:
[1] = target: rhodanese^(K135C, K174C) with AviTag, biotinylated, Alexa Fluor 647-labelled (UniProt P00586); assay: single-molecule TIRF colocalisation and photobleaching step counting; AF647-labelled client (2 μM) with AF488-labelled sHsp or SSB (4 μM) in 50 mM phosphate buffer pH 7.4 at 42°C for up to 7 h; aliquots cross-linked with BS3 (250 μM), diluted to 1-20 nM; biotinylated FLUC or rhodanese held on a NeutrAvidin coverslip; imaged at 20°C; chance colocalisation subtracted
[2] = target: firefly luciferase FLUC^(ΔCys, K141C, K491C), biotinylated, Alexa Fluor 647-labelled (firefly) [luciferase: P08659]; assay: as above
[3] = target: chloride intracellular channel 1, CLIC1^C24 (C59A, C89A, C178A, C191A, C223A), Alexa Fluor 647-labelled (UniProt O00299); assay: single-molecule TIRF colocalisation and photobleaching step counting; AF647-labelled CLIC (2 μM) with AF488-labelled sHsp (4 μM) in 50 mM phosphate buffer pH 7.4 at 42°C for up to 7 h; aliquots cross-linked with BS3 (250 μM), diluted to 1-20 nM; His-tagged CLIC held through a biotinylated anti-6X His antibody on a NeutrAvidin coverslip; imaged at 20°C; chance colocalisation subtracted
[4] = target: αB-crystallin with an additional C-terminal cysteine (αB-c_(C176)), Alexa Fluor 488-labelled (human) (UniProt P02511); assay: single-molecule TIRF colocalisation and photobleaching step counting; AF647-labelled client (2 μM) with AF488-labelled sHsp or SSB (4 μM) in 50 mM phosphate buffer pH 7.4 at 42°C for up to 7 h; aliquots cross-linked with BS3 (250 μM), diluted to 1-20 nM; biotinylated FLUC or rhodanese held on a NeutrAvidin coverslip; imaged at 20°C; chance colocalisation subtracted

percent of client molecules colocalised with the sHsp (within 0.3 h) [1]: 40%
FLUC subunits in complexes with Hsp27 (1 h) (FLUC subunits/complex) [2]: 5
FLUC subunits per molecule, in and out of complexes with Hsp27 (0 h) [2]: 2 subunits
median FLUC subunits in complexes with Hsp27 (0.6 h) (subunits per complex) [2]: 20
percent of client molecules colocalised with the sHsp (after 1 h) [2]: 17%
percent of client molecules colocalised with the sHsp (within 0.6 h) [2]: 35%
stoichiometry N ([2]; scale: Hsp27:FLUC): 0.68 and 1.75 and 1.24
percent of client molecules colocalised with the sHsp (first hour) [3]: 15%
stoichiometry N ([3]; scale: Hsp27:CLIC): 0.29 and 0.69
Substance: Hsp27 cysteine mutant (Hsp27_(C137S,C207)), Alexa Fluor 488-labelled (from UniProt P04792 1-205) (natural protein)

stoichiometry N (subunits/oligomer) [4]: 6
FLUC subunits in complexes with αB-c [2]: 8 subunits
colocalised αB-c subunits per complex (1 h) (subunits/complex) [2]: 13
percent of client molecules colocalised with the sHsp (within 0.3 h) [2]: 40%
percent of client molecules colocalised with the sHsp (within 0.3 h) [3]: 20%
Substance: αB-crystallin with an additional C-terminal cysteine (αB-c_(C176)), Alexa Fluor 488-labelled (from UniProt P02511 1-175) (natural protein)

percent colocalised [1]: < 3%
Substance: single-stranded binding protein (SSB), fluorescently labelled, non-chaperone control (from UniProt P0AGE0 1-178) (natural protein)
